The text below walks through data of doi:10.1101/2025.02.21.639491 (bioRxiv, 2025).

Changes are numbered by the printed parent chain. Names may count otherwise.

The data set deals with the molecule itself. The data set can be described thus: mass photometry.

B1: wild-type mouse PADI6 (peptidyl arginine deiminase 6) (natural protein, UniProt Q8K3V4 1-682, looked up)
chain: MSFQNSLSLSLVNPTHALCMVGMEITLDISKCAPDKCKSFTIRGSPRILIHISSSVIAGKEDTVVWRSMNHPTVALVRMVAPSPTVDEDKVLVSYFCPDQEVPTATAVLFLTGIEISLEADIYRDGQLDMPSDKQAKKKWMWGMNGWGAILLVNCSPNAVGQPDEQSFQEGPREIQNLSQMNVTVEGPTSILQNYQLILHTSEEEAKKTRVYWSQRGSSAYELVVGPNKPVYLLPTFENRRKEAFYVEATEFPSPSFSGLISLSLSLVEKAHDECIPEIPLYKDTVMFRVAPYIFMPSTQMPLEVYLCRELQLQGFVDSVTKLSEKSKVQVVKVYEDPNRQSKWLQDEMAFCYTQAPHKTVSLILDTPRVSKLEDFPMKYTLTPGSGYLIRQTEDHRVASLDSIGNLMVSPPVKAQGKDYPLGRVLIGGSFYPSSEGRDMNKGLREFVYAQQVQAPVELFSDWLMTGHMDQFMCFVPTNDKNNDQKDFRLLLASPSACFELFEQKQKEGYGNVTLFEDIGAEQLLSNGRESKTISQILADKSFREQNTYVEKCISLNRTLLKTELGLEDKDIILIPQLFCLEQLTNVPSNQQSTKLFARPYFPDMLQIIVLGKNLGIPKPFGPKINGTCCLEEKVCGLLEPLGLKCTFIDDFDCYLANIGDVCASAIINRVPFAFKWWKMTP
With B1, the “stoichiometry N” value was found to be 2.

B2: mouse PADI6 C663A (natural protein, UniProt Q8K3V4 1-682, looked up)
chain: B1 chain with C663A
As to B2, the “stoichiometry N” value was 2.
